Laboratory results published in patent US20230090311A1, “SELF-ASSEMBLING, SELF-A[…] FOR […] OF VACCINES” (THE UNIVERSITY OF QUEENSLAND, priority 2020, published 2023).
Where “and” joins values, the source holds several entries; their conditions need not be identical. Equal entries are not always repeated. Entries after “also recorded” stand apart in the source; their conditions may differ. No end group written: not given here.

What was measured:
[1] = test system: J8; format: in vivo, C57BL/6 mice; conditions: first animal study (epitope arrangement); 50 μg s.c., days 0, 21, 28, 35; listed as Conjugate 3
[2] = test system: RBD; conditions: 30 μg with CFA, single s.c. immunization; serum day 14
[3] = test system: B1; conditions: 30 μg with CFA, single s.c. immunization
[4] = Dynamic Light Scattering, Example 5; format: physicochemical; conditions: for Polydispersity index (PDI): DLS; for Particle size (nm) DLS: size as measured by intensity, 1-4 1 mg/mL, 5-11 2 mg/mL in PBS
Method: Dynamic Light Scattering. Individual compounds 1-4 (1 mg/mL in PBS) and 5-11 (2 mg/mL in PBS) were analyzed using DLS to measure particle size (zeta intensity) and PDI. The samples were treated with ultrasonication for 30 min, then transferred into disposable cuvettes. Measurement were taken at 25° C. and […] light scattering. DLS measurements were taken using a Zetasizer Nano ZP instrument (Malvern Instrument, UK) with Malvern Zetasizer Analyser 6.2 software.

[5] = Transmission Electron Microscopy, Example 5; format: physicochemical; conditions: negative staining; NP = nanoparticles, CLANs = chain like aggregates of nanoparticles
Text: Transmission Electron Microscopy. Particle-imaging was captured using a JEM-1010 TEM (HT7700 Exalens, HITACHI Ltd., JEOL Ltd., Japan) operated at 80 kV, using negative staining. Samples of compounds 1-11 (1:2 dilution of samples prepared for DLS analysis) were applied to glow-discharged carbon-coated copper 200-mesh grids (Ted Pella) and negative-stained with 2% phosphotungstic acid.

[6] = Characterisation of nanoliposomes by DLS, Example 2; format: physicochemical
Method: The particle size, zeta potential and polydispersity of vaccine candidates were measured by dynamic light scattering (DLS) using zetasizer (Nano ZX, Marvern, England). The particle morphology of vaccine candidates was examined using transmission electron microscope (TEM) (HT7700 Exalens, HITACHI Ltd., Japan) after vacuum-drying. Briefly, the sample were diluted in pure distilled water (1:100) and dropped directly on a glow-discharged carbon coated copper grid and then stained with 2% uranyl acetate.

[7] = test system: E749-57 (RAHYNIVTF) peptide-specific CD8+ T-cell response; assay: IFN-gamma ELISPOT assay; format: in vivo, C57BL/6 mice; conditions: splenocytes ten days after immunisation, restimulated with E7 peptide
Method: The mice received single dose of vaccine.
ELISPOT plates were coated with 5 μg mL-1 IFN-g capture antibody (clone) in PBS at 4° C. overnight. The plates were then blocked with RPM/20% FCs at room temperature for 3 hours. Splenocytes from C57/BL/6 mice were harvested from the spleens of naïve and immunised mice. The red blood cells were depleted using red blood cell lysing buffer (0.155 M ammonium chloride in 0.01 M Tris-HCl buffer, Sigma). Splenocytes were then resuspended in RPMI (sigma) supplemented with 20% FACs (100 UmL-1 penicillin and 100 μg mL-1 streptomycin and 50 μM b-mercaptoethanol. The cells were plated at 5×10^5 cells per well in triplicate on ELISPOT plates. E7 peptide (10 μg mL-1) was added alongside 10 ng mL-1 rhIL-2 to a final volume of 200 μL per well. Plates were incubated for 8 hours at 37 C, washed and biotinylated IFN-g detection antibody in 1% BSA added at room temperature, plates were washed again and bound cytokine was visualised with 3-amino-9ethylcarbozole. Spots were counted with an ELISPOT reader.

[8] = test system: TC-1 tumour cells; assay: In vivo tumour treatment experiments
[9] = test system: p145; conditions: second animal study

Ac-(Leu)15-PADRE-K-J8 (Ac-LLLLLLLLLLLLLLLAKFVAAWTLKAAAKQAEDKVKQSREAKKQVEKALKQLEDKVQ) [Compound 3]
J8-specific serum IgG antibody titers [1]: significant immunoglobulin G (IgG) titers after the primary immunization; also recorded: higher antibody titers than the previously identified lead vaccine candidate (2)

AIHADQLTPTWRVYSTG [Compound B1]
anti-RBD IgG [2]: did not generate anti-RBD IgG
antibody titers against the epitope itself [3]: did not generate significant antibody titers against itself

Ac-(Ser)15-PADRE-J8 (Ac-SSSSSSSSSSSSSSSAKFVAAWTLKAAAQAEDKVKQSREAKKQVEKALKQLEDKVQ) [Compound 10]
Polydispersity index (PDI) [4]: 0.31 ± 0.02
Particle size (nm) DLS [4]: 240 ± 9 nm
Particle size (nm) TEM [5]: 10-90 nm NP and CLANs

Ac-(Phe-Leu-Ala)5-PADRE-J8 (Ac-FLAFLAFLAFLAFLAAKFVAAWTLKAAAQAEDKVKQSREAKKQVEKALKQLEDKVQ) [Compound 11]
Polydispersity index (PDI) [4]: 0.44 ± 0.02
Particle size (nm) DLS [4]: 255 ± 9 nm
Particle size (nm) TEM [5]: 10-20 nm NP and CLANs

LLLLLLLLLLQAEPDRAHYNIVTF [Leu-8Qm]
PDI ([6]; DLS): 0.6 and 0.6 ± 0.1
Size ([6]; DLS): 4000 ± 150 nm
Charge ([6]; zeta potential): −10 mV and −10 ± 5 mV
IFN-gamma production (ELISPOT) [7]: significantly produced IFN levels
survival of tumour-bearing mice ([8]; single dose 100 μg on day 7 after TC-1 inoculation): increased survival rate of tumour infected mice
day by which tumours of all mice exceeded 1 cm^3 ([8]; single dose on day 7 after TC-1 inoculation): 57 days

AKFVAAWTLKAAAQAEDKVKQSREAKKQVEKALKQLEDKVQ [Compound 1]
p145-specific serum IgG antibodies [9]: less efficient or completely unable to recognize p145
